Results published in publication PMC9868604, “Structural insights into 3Fe–4S ferredoxins diversity in M. tuberculosis highlighted by a first redox complex with P450” (Frontiers in Molecular Biosciences, 2022).

B1: FdxE (Rv1786), 3Fe-4S ferredoxin of M. tuberculosis (natural protein)
chain: MKVRLDPSRCVGHAQCYAVDPDLFPIDDSGNSILAEHEVRPEDMQLTRDGVAACPEMALILEEDDAD
notes: also called ferredoxin Rv1786; mtb_1786
B2: FdxE part of the FdxE-CYP143 fusion protein (domain or fragment)
chain: KVRLDPSRCVGHAQCYAVDPDLFPIDDSGNSILAEHEVRPEDMQLTRDGVAACPEMALILEEDDAD
notes: also called fusion FdxE–CYP143; not shown: His-tag, N-terminal, kept

How the values were obtained:
Conditions in all cases: both partners purified
[1] = molecular target: T1, Biotinylated CYP143 with Avi-tag at the C-terminus (M. tuberculosis, UniProt P9WPL3 2-393, biotin (on the Avi-tag)); assay: SPR; as a1, sensorgrams at 10, 15, 20, 25, 30 and 35°C; enthalpy from the slope of a Van't Hoff plot
T1 construct: also called CYP143A1; Rv1785c; not shown: Avi-tag, C-terminal, kept
T1 sequence (P9WPL3 2-393): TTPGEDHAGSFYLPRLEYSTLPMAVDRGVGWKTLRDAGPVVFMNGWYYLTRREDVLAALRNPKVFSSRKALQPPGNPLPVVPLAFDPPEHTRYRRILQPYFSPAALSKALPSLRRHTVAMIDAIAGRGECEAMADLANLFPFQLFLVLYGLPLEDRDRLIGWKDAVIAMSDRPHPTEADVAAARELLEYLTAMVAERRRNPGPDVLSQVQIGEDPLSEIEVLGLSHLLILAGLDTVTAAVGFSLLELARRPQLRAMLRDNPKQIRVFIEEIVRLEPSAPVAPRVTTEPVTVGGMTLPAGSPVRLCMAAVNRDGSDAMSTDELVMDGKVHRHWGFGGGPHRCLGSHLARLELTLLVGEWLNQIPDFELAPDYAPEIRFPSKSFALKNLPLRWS

[2] = molecular target: T1, Biotinylated CYP143 with Avi-tag at the …; assay: SPR
[3] = molecular target: T2, CYP143 part of the FdxE-CYP143 fusion protein (M. tuberculosis, UniProt P9WPL3 2-393); assay: crystal structure; FdxE fused via a linker to the N-terminus of CYP143 on one chain; 1.6 Å; crystals in .2 M sodium chloride, .1 M Bis-Tris pH 6.0, 25% PEG3350, 20°C
T2 construct: also called fusion FdxE–CYP143
T2 sequence (P9WPL3 2-393): as above

| Binder | dH [1] | Kd [2] | koff [2] | kon [2] | binding result [3] |
| --- | --- | --- | --- | --- | --- |
| B1 | -10.8 ± 2.15 kcal/mol | 84 ± 2 nM | 0.0423 ± 0.0005 s⁻¹ | 502000 M⁻¹ s⁻¹ |  |
| B2 |  |  |  |  | binds |
